In assay [1] the target is nicotinic acetylcholine receptor of α7 type (α7-nAChR) (human (endogenous in A549)) (UniProt P36544). To be noted: scale: % of viable cells relative to the control.
Assay [2] has the same target.
Assay [3] shares this target. This is another data set of the same source.
Assay [4] has the same target. The source holds these as a separate data set.
Assay [5] addresses nicotinic acetylcholine receptor of α7 type (α7-nAChR) (human (endogenous in A549), UniProt P36544 23-502). The assay is described as follows: cell-based or functional assay.

Where only a bound is given, the exact number is not on record here.

Here are results for four molecules from article PMC8476798, “SLURP-1 Controls Growth and Migration of Lung Adenocarcinoma Cells, Forming a Complex With α7-nAChR and PDGFR/EGFR Heterodimer” (Frontiers in Cell and Developmental Biology, 2021).

Chain of nicotinic acetylcholine receptor of α7 type (α7-nAChR) (human (endogenous in A549)) (P36544 23-502): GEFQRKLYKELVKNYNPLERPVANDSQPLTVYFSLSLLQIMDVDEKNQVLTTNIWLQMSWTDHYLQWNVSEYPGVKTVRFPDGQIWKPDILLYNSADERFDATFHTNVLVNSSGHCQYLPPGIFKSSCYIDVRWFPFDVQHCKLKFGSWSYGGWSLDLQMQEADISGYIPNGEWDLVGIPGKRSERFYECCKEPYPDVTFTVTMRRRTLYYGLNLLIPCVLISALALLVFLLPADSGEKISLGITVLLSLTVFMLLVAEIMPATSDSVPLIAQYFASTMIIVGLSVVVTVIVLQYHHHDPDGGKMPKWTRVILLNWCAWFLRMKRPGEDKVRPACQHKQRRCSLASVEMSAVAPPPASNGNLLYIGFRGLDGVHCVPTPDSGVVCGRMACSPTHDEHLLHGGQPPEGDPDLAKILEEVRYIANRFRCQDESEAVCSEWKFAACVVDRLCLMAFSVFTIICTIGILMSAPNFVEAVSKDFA
Chain of nicotinic acetylcholine receptor of α7 type (α7-nAChR) (P36544 23-502): as above

Take chimeric protein NTII/SL-1(I): the antiproliferative activity in A549 cells, WST-1 test, 48 h with 1 μM protein, % of viable cells relative to the control in assay [1] came out at 70.

As for “synthetic peptide “loop III” with the sequence of loop III of SLURP-1”, the IC50 of inhibition of ACh-evoked currents at human α7-nAChRs expressed in X. laevis oocytes (two-electrode voltage clamp, 100 μM ACh) in assay [2] was > 250000 nM.

As to “synthetic peptide “loop I” mimicking loop I of SLURP-1”, the EC50 of the inhibition of A549 cell migration, scratch assay (control cells without knock-down) in assay [3] turned out to be 226 nM. The molecule also gave an IC50 of inhibition of ACh-evoked currents at human α7-nAChRs expressed in X. laevis oocytes (two-electrode voltage clamp, 100 μM ACh) in assay [2] of 74000 nM. The same molecule yielded an EC50 of the decrease of A549 cell viability, WST-1 test, 48 h in assay [4] of 1800 nM.

B1: recombinant analogue of human SLURP-1 (rSLURP-1) (natural protein, UniProt P55000 23-103, looked up)
chain: LKCYTCKEPMTSASCRTITRCKPEDTACMTTLVTVEAEYPFNQSPVVTRSCSSSCVATDPDSIGAAHLIFCCFRDLCNSEL
Take B1: in assay [5], the “EC50 of the decrease of A549 cell viability, WST-1 test, 48 h” value came out at 10.1 nM and the “IC50 of inhibition of ACh-evoked currents at human α7-nAChRs expressed in X. laevis oocytes (two-electrode voltage clamp, 100 μM ACh)” value amounted to 12000 nM.
